# Data: publication PMC5418593
# B1: 10 bp dsDNA, 5'-32P (dsDNA)
# DNA 1: CTGACGTGCG
# DNA 2: CGCACGTCAG
# modifications: 5'-phosphate (32P)
# B2: 10 bp 5'OH-dsDNA, 3'-fluorescein (dsDNA)
# DNA 1: CTGACGTGCG
# DNA 2: CGCACGTCAG
# modifications: 5'-OH
# B3: 10 bp DNA for crystallization (dsDNA)
# DNA 1: CTGACGTGCG
# DNA 2: CGCACGTCAG
# modifications: 5'-phosphate on one strand only
# B4: 10 bp 5'P-dsDNA, 3'-fluorescein (dsDNA)
# DNA 1: CTGACGTGCG
# DNA 2: CGCACGTCAG
# modifications: 5'-phosphate on one strand
# Key:
# hEXOG-R314A [1] = target: T1, hEXOG-R314A (human, UniProt Q9Y2C4 59-368, R314A;del2-58); assay: EMSA; 20 mM EDTA; apparent Kd; EK140: 20 mM HEPES pH 7.5, 140 mM KCl, 1 mM TCEP, 5% glycerol; plus 20 mM EDTA for anisotropy and EMSA (gel at 4 C, 0.5x TBE with 20 mM EDTA); ITC in EK140 at 20 C; conditions: protein: recombinant; tags: C-terminal His-tag; chain copies: 2; label: 5'-32P; 10 bp duplex
# [2] = target: T2, hEXOG wild type (hEXOG-dN58) (human, UniProt Q9Y2C4 59-368, del2-58); assay: as above; conditions: protein: recombinant; tags: C-terminal His-tag; chain copies: 2; label: 5'-32P; 10 bp duplex
# [3] = target: T2, hEXOG wild type (hEXOG-dN58); assay: fluorescence anisotropy; 20 mM EDTA; apparent Kd; EK140: 20 mM HEPES pH 7.5, 140 mM KCl, 1 mM TCEP, 5% glycerol; plus 20 mM EDTA for anisotropy and EMSA (gel at 4 C, 0.5x TBE with 20 mM EDTA); ITC in EK140 at 20 C; conditions: protein: recombinant; tags: C-terminal His-tag; chain copies: 2; label: 3'-fluorescein; 10 bp duplex
# hEXOG-H140A = hEXOG-H140A (human, UniProt Q9Y2C4 59-368, H140A;del2-58); assay: X-ray crystallography; 1.85 A; DNA in both active sites; EK140: 20 mM HEPES pH 7.5, 140 mM KCl, 1 mM TCEP, 5% glycerol; plus 20 mM EDTA for anisotropy and EMSA (gel at 4 C, 0.5x TBE with 20 mM EDTA); ITC in EK140 at 20 C; conditions: protein: recombinant; tags: C-terminal His-tag; chain copies: 2; 10 bp duplex; two duplexes per dimer
# hEXOG-R314A [4] = target: T1, hEXOG-R314A; assay: fluorescence anisotropy; 20 mM EDTA; apparent Kd; EK140: 20 mM HEPES pH 7.5, 140 mM KCl, 1 mM TCEP, 5% glycerol; plus 20 mM EDTA for anisotropy and EMSA (gel at 4 C, 0.5x TBE with 20 mM EDTA); ITC in EK140 at 20 C; conditions: protein: recombinant; tags: C-terminal His-tag; chain copies: 2; label: 3'-fluorescein; 10 bp duplex
# [5] = target: T2, hEXOG wild type (hEXOG-dN58); assay: fluorescence anisotropy; 20 mM EDTA; apparent Kd (main text 6.2); EK140: 20 mM HEPES pH 7.5, 140 mM KCl, 1 mM TCEP, 5% glycerol; plus 20 mM EDTA for anisotropy and EMSA (gel at 4 C, 0.5x TBE with 20 mM EDTA); ITC in EK140 at 20 C; conditions: protein: recombinant; tags: C-terminal His-tag; chain copies: 2; label: 3'-fluorescein; 10 bp duplex
binder,measurement,setting,value
B1,Kd,hEXOG-R314A [1],26.5 ± 6.6 nM
same,Kd,[2],3.4 ± 1.2 nM
B2,Kd,[3],22.2 ± 5.1 nM
B3,binding result,hEXOG-H140A,binds
B4,Kd,hEXOG-R314A [4],35.7 ± 7.2 nM
same,Kd,[5],6.25 ± 2 nM
